Data on seven molecules can be found in US20220168440A1, “ANTIBODY-PYRROLOBENZODIAZEPINE DEPRIVATIVE CONJUGATE” (DAIICHI SANKYO COMPANY, LIMITED, priority 2019, published 2022).

Positions count from the first letter of the chain named.

Sequences and labels used below:
B1: B1: mouse anti-CLDN6 antibody; heavy/light chain variable regions SEQ ID NO: 21 and 19 (antibody, listed as Mus musculus, V domains shown)
VH: EVQLQQSGPELVKPGASVKISCKTSGYTFTEYTMHWVQQSHGKSLEWIGGVNPNSGDTSYNQKFKGKATLTVDKSSSTAYMELRSLTSEDSAVYYCARPGGYDVGYYAMDYWGQGTSVTVSS
VL: DIQMTQTASSLSASLGDRVTISCRASQDINNYLNWYQQKPDGTVKLLIYFTSRLHSGVPSRFSGSGSGTHYSLTITNLEQEDIATYFCQQGYPLPWTFGGGTKLEIK
modifications: amino acid sequence of variable region of B1 antibody heavy chain; amino acid sequence of variable region of B1 antibody light chain
B2: C7: mouse anti-CLDN6 antibody; heavy/light chain variable regions SEQ ID NO: 25 and 23 (antibody, listed as Mus musculus, V domains shown)
VH: B1 VH
VL: B1 VL with F50S, N77H
modifications: amino acid sequence of variable region of C7 antibody heavy chain; amino acid sequence of variable region of C7 antibody light chain
B3: humanized anti-CLDN6 antibody H1L3 (antibody, human IgG1, kappa, L234A L235A, V domains shown)
VH: QVQLVQSGAEVKKPGASVKVSCKASGYTFTEYTMHWVRQAPGQGLEWMGGVNPNSGDTSYAQKFQGRVTITADTSTSTAYMELSSLRSEDTAVYYCARPGGYDVGYYAMDYWGQGTLVTVSS
VL: DIQMTQSPSSLSASVGDRVTITCRASQDINNYLNWYQQKPGGAVKLLIYFTSRLHSGVPSRFSGSGSGTDYTLTISSLQPEDFATYYCQQGYPLPWTFGGGTKVEIKR
notes: hH1 + hL3, with human IgG1 LALA constant region and human kappa chain; also called H1L3 antibody
B4: humanized anti-CLDN6 antibody H2L2 (antibody, human IgG1, kappa, L234A L235A, V domains shown)
VH: B3 VH with Q1E, A24T, Q43K, G44S
VL: B3 VL with G42K, D70H, G100Q
notes: hH2 + hL2, with human IgG1 LALA constant region and human kappa chain; also called H2L2 antibody
B5: humanized anti-CLDN6 antibody H1L1 (antibody, human IgG1, kappa, L234A L235A, V domains shown)
VH: B3 VH
VL: B3 VL with G42K, V44P, G100Q
notes: hH1 + hL1, with human IgG1 LALA constant region and human kappa chain; also called H1L1 antibody
B6: humanized anti-CLDN6 antibody H3L3 (antibody, human IgG1, kappa, L234A L235A, V domains shown)
VH: B3 VH with Q1E, A24T, I70L, A72V, T74K
VL: B3 VL
notes: hH3 + hL3, with human IgG1 LALA constant region and human kappa chain; also called H3L3 antibody
B7: humanized anti-CLDN6 antibody H2L4 (antibody, human IgG1, kappa, L234A L235A, V domains shown)
VH: B3 VH with Q1E, A24T, Q43K, G44S
VL: B3 VL with Y92N, P93T
notes: also called H2L4 antibody

The first assay has as its target T1, human claudin-6 (Homo sapiens, UniProt P56747).
T1 construct: expressed in transfected cells; host or cells: CHO-K1 cells
T1 sequence (P56747 1-220): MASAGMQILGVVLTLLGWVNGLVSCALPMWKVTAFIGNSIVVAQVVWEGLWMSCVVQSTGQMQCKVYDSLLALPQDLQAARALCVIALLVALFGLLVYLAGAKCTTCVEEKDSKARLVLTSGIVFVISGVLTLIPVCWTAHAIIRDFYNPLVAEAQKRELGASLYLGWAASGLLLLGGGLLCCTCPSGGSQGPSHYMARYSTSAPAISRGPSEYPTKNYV
Nature of the assay: FACS analysis of 218B1/218C7 antibodies on human claudin-6-expressing CHO-K1 cells. Type of assay: binding. The conditions noted are these: forced expression by cDNA transfection. As for the experimental part: Since the antigen for the 218B1 antibody and 218C7 antibody was estimated to be claudin-6 from the mass spectrometry, forced expression analysis by cDNA transfection was carried out.
With B1, the “FACS reaction for human claudin-6-expressing CHO-K1 cells” value is on record as “strong positive reaction”.

Regarding B2, the “FACS reaction for human claudin-6-expressing CHO-K1 cells” value is given as “strong positive reaction”.

The next assay deals with BxPC-3. Briefly: Internalization activity by Mab-ZAP (saporin-conjugated anti-mouse IgG), cell survival. The conditions noted are these: human CLDN6-negative pancreatic cancer cell line BxPC-3; antibody 1 nM, Mab-ZAP 0.5 nM; 5 days. Type of assay: cell-based. As for the experimental part: (§1) Internalization activity of the mouse anti-CLDN6 antibodies B1 and C7 was evaluated by using the anti-mouse IgG reagent, to which a toxin that inhibits protein synthesis (saporin) had been conjugated, Mab-ZAP (Advanced Targeting Systems). In this evaluation, Mab-ZAP is incorporated into cells in a manner depending on the internalization activity of a mouse anti-CLDN6 antibody, and saporin, which inhibits protein synthesis, is released in the cells to suppress cell growth.
(§2) JEG-3(ATCC HTB-36), a human choriocarcinoma cell line of human CLDN6-positive cells, NIH:OVCAR-3 (ATCC HTB-161), a human ovarian cancer cell line of human CLDN6-positive cells, or BxPC-3 (ATCC CRL-1687), a human pancreatic cancer cell line of human CLDN6-negative cells, was seeded in a 96-well cell culture microplate at 2×10^3 cells/well, and cultured under conditions of 37° C. and 5% CO2 overnight. On the next day, a mixed solution obtained by mixing each mouse anti-CLDN6 antibody or mouse IgG1 antibody (R&D Systems, Inc.) to a final concentration of 1 nM, with Mab-ZAP (final concentration: 0.5 nM) or AffiniPure Goat Anti-Mouse IgG, Fcγ Fragment Specific (Jackson ImmunoResearch Laboratories Inc.) (final concentration: 0.5 nM), without conjugated toxin, was added, and the cells were cultured under conditions of 37° C. and 5% CO2 for 5 days. The number of surviving cells was determined through quantification of ATP activity by using CellTiter-Glo Luminescent Cell Viability Assay (Promega Corporation).
With B1, the “cell growth-suppressing effect (relative survival rate) with Mab-ZAP” value is “no cell growth-suppressing effect”.

For the molecule B2, the “cell growth-suppressing effect (relative survival rate) with Mab-ZAP” value is recorded as “no cell growth-suppressing effect”.

The next assay deals with JEG-3. The assay is described as above. The note with it: human CLDN6-positive choriocarcinoma cell line JEG-3; antibody 1 nM, Mab-ZAP 0.5 nM; 5 days. Type of assay: cell-based. As for the experimental part: as §1, §2
Consider B1, for which the “cell growth-suppressing effect (relative survival rate) with Mab-ZAP” value is “cell growth-suppressing effect”.

As for B2, the “cell growth-suppressing effect (relative survival rate) with Mab-ZAP” value is recorded as “cell growth-suppressing effect”.

A further assay relates to NIH:OVCAR-3. The assay is described as above. Type of assay: cell-based. The conditions noted are these: human CLDN6-positive ovarian cancer cell line NIH:OVCAR-3; antibody 1 nM, Mab-ZAP 0.5 nM; 5 days. As for the experimental part: as §1, §2
As for B1, the “cell growth-suppressing effect (relative survival rate) with Mab-ZAP” value is “cell growth-suppressing effect”.

B2: the “cell growth-suppressing effect (relative survival rate) with Mab-ZAP” value is reported as “cell growth-suppressing effect”.

In a further assay the target is T2, human CLDN3 (human, UniProt O15551 1-220).
T2 construct: whole, on cells
T2 sequence (looked up): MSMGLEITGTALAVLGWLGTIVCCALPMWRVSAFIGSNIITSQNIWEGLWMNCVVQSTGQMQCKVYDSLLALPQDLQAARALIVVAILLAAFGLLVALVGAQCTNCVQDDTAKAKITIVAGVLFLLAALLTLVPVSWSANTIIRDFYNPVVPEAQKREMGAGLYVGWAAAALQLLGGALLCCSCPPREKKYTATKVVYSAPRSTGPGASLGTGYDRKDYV
Briefly: flow cytometry on transiently transfected 293T cells.
Conditions: not given
The method, then:
(§3) Binding activity of the mouse anti-CLDN6 antibodies produced in Example 6 to human CLDN6 and its family molecules, CLDN3, CLDN4, and CLDN9, was evaluated by using a flow cytometry method. Human CLDN3/pCMV6-Entry, human CLDN4/pCMV6-Entry, human CLDN6/pCMV-Entry, human CLDN9/pCMV6-Entry, or pCMV6-Entry purchased from OriGene Technologies, Inc. was transiently transferred into 293T cells (Thermo Fisher Scientific, HCL4517) by using Lipofectamine 2000 (Thermo Fisher Scientific), and the cells were cultured under conditions of 37° C. and 5% CO₂ overnight, and then a cell suspension was prepared. […] The cells were washed twice with Dulbecco's phosphate buffered saline (Sigma-Aldrich Co. LLC) containing 5% fetal bovine serum (Hyclone) (hereinafter, referred to as 5% FBS-containing PBS), and FLUORESCEIN-CONJUGATED GOAT IGG FRACTION TO MOUSE IGG (WHOLE MOLECULE) (MP Biomedicals, Inc.) 500-fold diluted with 5% FBS-containing PBS was then added thereto, and the cells were suspended and left to stand at 4° C. for 1 hour. After washing twice with 5% FBS-containing PBS, detection was carried out by using a flow cytometer (FC500; Beckman Coulter, Inc.). Data analysis was carried out by using FlowJo (Tree Star, Inc.). […] In each graph in FIG. 40, the ordinate represents FITC fluorescence intensity indicating the amount of the binding antibody and the abscissa represents antibody concentrations.
(§4) The binding activity of the humanized anti-CLDN6 antibody produced in Example 10 to human CLDN6 and its family molecules, CLDN3, CLDN4, and CLDN9, was evaluated by using a flow cytometry method.
With B3, the binding result is “no binding (tested: 100 nM)”.

B4: the binding result is reported as “no binding (tested: 100 nM)”.

As for B5, the binding result is listed as “no binding (tested: 100 nM)”.

B6: the binding result is reported as “no binding (tested: 100 nM)”.

On to B7, for which the binding result is “no binding (tested: 100 nM)”.

The target in a further assay is T3, human CLDN4 (human, UniProt O14493 1-209).
T3 construct: whole, on cells
T3 sequence (looked up): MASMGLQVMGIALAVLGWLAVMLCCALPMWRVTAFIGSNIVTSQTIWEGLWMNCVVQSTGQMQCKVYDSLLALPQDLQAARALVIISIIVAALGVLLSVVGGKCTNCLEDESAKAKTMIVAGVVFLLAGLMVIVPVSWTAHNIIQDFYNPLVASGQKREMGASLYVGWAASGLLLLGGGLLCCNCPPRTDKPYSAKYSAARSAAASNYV
Described as above.
Conditions: not given
As for the experimental part:
as §3, §4
With B3, the binding result was “no binding (tested: 100 nM)”.

Consider B4, for which the binding result is “no binding (tested: 100 nM)”.

Regarding B5, the binding result was “no binding (tested: 100 nM)”.

On to B6, for which the binding result was “no binding (tested: 100 nM)”.

Regarding B7, the binding result is “no binding (tested: 100 nM)”.

A further assay concerns the target T4, human CLDN6 (human, UniProt P56747 1-220).
T4 construct: Four-transmembrane protein, NP_067018; It was also expressed on CHO-K1 cells by cDNA transfection; In the immunoprecipitation it was the endogenous protein from NTERA-2 cell lysate; also called hCLDN6; claudin-6
T4 sequence: T1 sequence (P56747 1-220)
Nature of the assay: flow cytometry (MFI) on transiently transfected 293T cells.
Conditions: not given
The method, then: (§5) The binding activity of the humanized anti-CLDN6 antibody produced in Example 10 to human CLDN6 and its family molecules, CLDN3, CLDN4, and CLDN9, was evaluated by using a flow cytometry method. […] The cells were washed with Dulbecco's phosphate buffered saline (Sigma-Aldrich Co. LLC) containing 5% fetal bovine serum (Hyclone) (hereinafter, referred to as 5% FBS-containing PBS), and FITC AffiniPureF (ab′)2 Fragment Goat Anti-Human IgG (H+L) (Jackson ImmunoResearch Laboratories Inc.) 150-fold diluted with 5% FBS-containing PBS was then added thereto, and the cells were suspended and left to stand at 4° C. for 30 minutes. After washing with 5% FBS-containing PBS, detection was carried out by using a flow cytometer (FC500; Beckman Coulter, Inc.). Data analysis was carried out by using FlowJo (Tree Star, Inc.), and mean fluorescence intensity (MFI) of FITC, which indicates the amount of the binding antibody, was calculated. […] In each graph in FIG. 42, the abscissa represents antibody concentrations and the ordinate represents MFI.
On to B3, for which the binding result was “binds”.

On to B4, for which the binding result was “binds”.

B5: the binding result is on record as “binds”.

As to B6, the binding result is listed as “binds”.

As for B7, the binding result is reported as “binds”.

The next assay addresses T5, human CLDN9 (human, UniProt O95484 1-217).
T5 construct: NP_066192; It was expressed on 293T cells transiently transfected with human CLDN9/pCMV6-Entry (OriGene); also called claudin-9
T5 sequence: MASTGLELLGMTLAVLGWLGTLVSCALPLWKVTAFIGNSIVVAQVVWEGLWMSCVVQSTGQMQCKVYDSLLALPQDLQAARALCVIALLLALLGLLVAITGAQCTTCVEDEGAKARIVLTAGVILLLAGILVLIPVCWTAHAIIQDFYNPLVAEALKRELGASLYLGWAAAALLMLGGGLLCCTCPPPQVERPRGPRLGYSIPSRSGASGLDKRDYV
Described as above.
Conditions: not given
The method, then: as §5
As for B3, the binding result is listed as “binds”.

For the molecule B4, the binding result was “binds”.

As for B5, the binding result is “binds”.

With B6, the binding result is “binds”.

As to B7, the binding result is “binds”.
